The results in this text go back to patent US20230235052A1 (GRACELL BIOTECHNOLOGIES SHANGHAI, published 2023).

One experiment concerns the target T1, human CD19 antigen (human, UniProt P15391 20-291, limits assumed).
T1 sequence (looked up): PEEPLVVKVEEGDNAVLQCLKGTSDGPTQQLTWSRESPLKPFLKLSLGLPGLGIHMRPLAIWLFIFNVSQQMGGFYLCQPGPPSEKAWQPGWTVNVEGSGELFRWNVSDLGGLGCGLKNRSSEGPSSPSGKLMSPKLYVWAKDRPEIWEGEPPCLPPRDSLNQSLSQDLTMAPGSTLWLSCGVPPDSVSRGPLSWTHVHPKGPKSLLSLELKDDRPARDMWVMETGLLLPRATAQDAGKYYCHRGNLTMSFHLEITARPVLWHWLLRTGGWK
Put plainly: SPR (Biacore), antibody captured via Fc. The method, then:
Part of the antibodies in Example 1 were tested for affinity, and the composition of the heavy chain variable regions and the light chain variable regions of the antibodies to be tested are shown in Table 2.
HEK293 cells were used to express the antibodies to be tested and Protein A was used for purification. The surface plasmon resonance technique (SPR) was used for determination, and the Fc capture method was used for antibody fixation.

For experiment [1], the target named is T2, CD19 on CD19-positive target cells SU-DHL-10 and Raji (human, UniProt P15391 20-556).
T2 construct: whole, on cells; also called cell surface antigens
T2 sequence (looked up): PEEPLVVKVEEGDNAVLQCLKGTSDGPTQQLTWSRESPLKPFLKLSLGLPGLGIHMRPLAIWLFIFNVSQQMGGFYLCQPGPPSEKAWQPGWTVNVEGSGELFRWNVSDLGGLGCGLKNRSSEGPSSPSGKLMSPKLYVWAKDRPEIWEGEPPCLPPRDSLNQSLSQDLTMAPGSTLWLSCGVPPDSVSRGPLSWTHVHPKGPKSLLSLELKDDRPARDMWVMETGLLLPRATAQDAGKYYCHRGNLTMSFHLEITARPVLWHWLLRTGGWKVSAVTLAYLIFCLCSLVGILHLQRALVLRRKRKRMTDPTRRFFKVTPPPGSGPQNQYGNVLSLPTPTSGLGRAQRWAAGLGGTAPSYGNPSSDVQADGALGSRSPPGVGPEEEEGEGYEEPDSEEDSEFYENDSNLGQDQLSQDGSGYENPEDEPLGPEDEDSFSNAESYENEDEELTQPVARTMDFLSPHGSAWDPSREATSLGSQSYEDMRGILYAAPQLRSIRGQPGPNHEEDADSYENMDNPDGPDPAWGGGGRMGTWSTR
Put plainly: flow cytometry on CD19-positive Raji cells, antibody titrated, fluorescent anti-Fc secondary antibody, percent positive cells (panel 'scFv binding to Raji'). The method, then: (§1) Part of the antibodies in Example 1 were detected for surface binding to CD19-positive target cells SU-DHL-10 and Raji.
(§2) CD19-positive SU-DHL-10 or Raji cell lines were used, and humanized antibodies at different concentrations were used to bind the target cells. After binding, secondary antibodies (fluorescent labeled anti-Fc antibodies) were used for staining. After cleaning the residual antibodies, the positive rate was analyzed by flow cytometry to draw the binding curve of antibodies binding to cell surface antigens.
On the technique in general: In flow cytometry, cells or beads pass a laser one at a time.

For experiment [2], the target named is T2, CD19 on CD19-positive target cells …. Put plainly: flow cytometry on CD19-positive SU-DHL-10 cells, antibody titrated, fluorescent anti-Fc secondary antibody, percent positive cells (panel 'scFv binding to SU-DHL-10'). How it is done:
as §1, §2

B1: humanized CD19 antibody VH4 + VL6 (antibody, V domains shown)
VH: QVQLQESGPGLVKPSQTLSLTCTVSGVSLPDYGVSWIRQPPGKGLEWLGVIWGSETTYYNSALKSRLTISKDTSKNQVSLKLSSVTAADTAVYYCAKHYYYGGSYAMDYWGQGTTVTVSS
VL: DIQMTQSPSSLSASVGDRVTITCRASQDISKYLNWYQQKPGGAVKLLIYHTSRLHSGVPSRFSGSGSGTDYTFTISSLQPEDIATYFCQQGNTLPYTFGGGTKLEIK
In general, Kd refers to the free concentration of one partner at which half of the binding sites on the other are occupied at equilibrium, for simple one-to-one binding. A high value points to lower affinity. Broadly, the koff is a measure of how fast the partners let go of each other. Usually kon stands for the second-order rate constant of association. A higher kon goes with fast association. In the experiment with human CD19 antigen, B1 displayed a Kd of 9.31 nM, a koff of 0.00121 s⁻¹ and a kon of 129000 M⁻¹ s⁻¹.

B2: humanized CD19 antibody VH7 + VL6 (antibody, V domains shown)
VH: QVKLQESGPGLVKPSETLSLTCTVSGVSLPDYGVSWIRQPPGKGLEWLGVIWGSETTYYNSALKSRLTISKDTSKNQFSLKLSSVTAADTAVYYCAKHYYYGGSYAMDYWGQGTLVTVSS
VL: DIQMTQSPSSLSASVGDRVTITCRASQDISKYLNWYQQKPGGAVKLLIYHTSRLHSGVPSRFSGSGSGTDYTFTISSLQPEDIATYFCQQGNTLPYTFGGGTKLEIK
The term EC50 (read off the curve) denotes the midpoint of the concentration-response curve. Low values mean higher potency in that assay, high ones lower potency in that assay. With B2, in the experiment with human CD19 antigen, the Kd is 4.57 nM, the koff came out at 0.000592 s⁻¹ and the kon was 130000 M⁻¹ s⁻¹. Moreover, the “EC50 (read off the curve)” value in experiment [1] was approximately 0.03 µg/mL. For the same molecule, the “EC50 (read off the curve)” value in experiment [2] is approximately 0.01 µg/mL.

B3: humanized CD19 antibody VH9 + VL5 (antibody, V domains shown)
VH: QVQLQESGPGLVKPSETLSLTCTVSGVSLPDYGVSWIRQPPGKGLEWLGVIWGSETTYYNSALKSRLTISKDTSKSQVSLKLSSVTAADTAVYYCAKHYYYGGSYAMDYWGQGTLVTVSS
VL: DIQMTQSPSSLSASVGDRVTISCRASQDISKYLNWYQQKPGKAPKLLIYHTSRLHSGVPSRFSGSGSGTDYTFTISSLQPEDIATYFCQQGNTLPYTFGGGTKLEIK
notes: also called H9L5
In the experiment with human CD19 antigen, B3 returned a Kd of 1.7 nM, a koff of 0.000186 s⁻¹ and a kon of 109000 M⁻¹ s⁻¹.

B4: humanized CD19 antibody VH8 + VL6 (antibody, V domains shown)
VH: QVKLQESGPGLVKPSETLSLTCTVSGVSLPDYGVSWIRQPPGKGLEWIGVIWGSETTYYNSALKSRVTISKDTSKSQVFLKLSSVTAADTAVYYCAKHYYYGGSYAMDYWGQGTLVTVSS
VL: DIQMTQSPSSLSASVGDRVTITCRASQDISKYLNWYQQKPGGAVKLLIYHTSRLHSGVPSRFSGSGSGTDYTFTISSLQPEDIATYFCQQGNTLPYTFGGGTKLEIK
In the experiment with human CD19 antigen, B4 came in with a Kd of 3.26 nM, a koff of 0.000383 s⁻¹ and a kon of 117000 M⁻¹ s⁻¹. Further, the “EC50 (read off the curve)” value in experiment [1] was approximately 0.04 µg/mL. The “EC50 (read off the curve)” value in experiment [2] is approximately 0.01 µg/mL.

B5: humanized CD19 antibody VH8 + VL5 (antibody, V domains shown)
VH: QVKLQESGPGLVKPSETLSLTCTVSGVSLPDYGVSWIRQPPGKGLEWIGVIWGSETTYYNSALKSRVTISKDTSKSQVFLKLSSVTAADTAVYYCAKHYYYGGSYAMDYWGQGTLVTVSS
VL: DIQMTQSPSSLSASVGDRVTISCRASQDISKYLNWYQQKPGKAPKLLIYHTSRLHSGVPSRFSGSGSGTDYTFTISSLQPEDIATYFCQQGNTLPYTFGGGTKLEIK
In the experiment with human CD19 antigen, B5 returned a Kd of 3.87 nM, a koff of 0.000602 s⁻¹ and a kon of 155000 M⁻¹ s⁻¹. Further, the “EC50 (read off the curve)” value in experiment [1] is approximately 0.03 µg/mL. In experiment [2], the “EC50 (read off the curve)” value was approximately 0.01 µg/mL.

B6: humanized CD19 antibody VH10 + VL5 (antibody, V domains shown)
VH: QVKLQESGPGLVKPSETLSLTCTVSGVSLPDYGVSWIRQPPGKGLEWLGVIWGSETTYYNSALKSRLTISKDTSKSQVFLKLSSVTAADTAVYYCAKHYYYGGSYAMDYWGQGTLVTVSS
VL: DIQMTQSPSSLSASVGDRVTISCRASQDISKYLNWYQQKPGKAPKLLIYHTSRLHSGVPSRFSGSGSGTDYTFTISSLQPEDIATYFCQQGNTLPYTFGGGTKLEIK
Take B6: in the experiment with human CD19 antigen, the Kd was 1.55 nM, the koff was found to be 0.000182 s⁻¹ and the kon turned out to be 118000 M⁻¹ s⁻¹. Besides, the “EC50 (read off the curve)” value in experiment [1] was approximately 0.03 µg/mL.
